# Experimental data from US20200216522A1 (published 2020).
# B1: chimeric IgG clone 1A5 (antibody, V domains shown)
# VH: EVQLQQSGAELVRPGASVKLSCTASGFNIKDSLIHWVKQRPEQGLEWIGWIDPEDGETKYAPKFQDKATKTADTSSNTAYLQLSSLTSEDTAIYYCASGEWDYWGQGTSVTVSS
# VL: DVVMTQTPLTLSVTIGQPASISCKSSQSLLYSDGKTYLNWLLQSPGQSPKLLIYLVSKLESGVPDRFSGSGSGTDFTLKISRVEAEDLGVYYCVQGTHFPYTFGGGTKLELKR
# B2: chimeric IgG clone 1G7 (antibody, V domains shown)
# VH: EVQLQQSGAEVVRPGASVKLSCTTSGFNIKDSLMHWLKQRPEQGLEWIGWIDPEDGETKYAPKFQDKATITADTSSNTAYLQLSSLTSGDTAIYYCARRDWEGPWGQGTLVTVSA
# VL: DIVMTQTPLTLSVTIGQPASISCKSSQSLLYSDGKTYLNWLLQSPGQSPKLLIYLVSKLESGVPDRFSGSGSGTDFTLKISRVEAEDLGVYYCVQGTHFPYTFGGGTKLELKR
# Biological target: full-length human Tau (Tau441; 2N4R), recombinant (UniProt P10636 1-758)
# Sequence (P10636 other isoform, or with tags, fused parts or gaps): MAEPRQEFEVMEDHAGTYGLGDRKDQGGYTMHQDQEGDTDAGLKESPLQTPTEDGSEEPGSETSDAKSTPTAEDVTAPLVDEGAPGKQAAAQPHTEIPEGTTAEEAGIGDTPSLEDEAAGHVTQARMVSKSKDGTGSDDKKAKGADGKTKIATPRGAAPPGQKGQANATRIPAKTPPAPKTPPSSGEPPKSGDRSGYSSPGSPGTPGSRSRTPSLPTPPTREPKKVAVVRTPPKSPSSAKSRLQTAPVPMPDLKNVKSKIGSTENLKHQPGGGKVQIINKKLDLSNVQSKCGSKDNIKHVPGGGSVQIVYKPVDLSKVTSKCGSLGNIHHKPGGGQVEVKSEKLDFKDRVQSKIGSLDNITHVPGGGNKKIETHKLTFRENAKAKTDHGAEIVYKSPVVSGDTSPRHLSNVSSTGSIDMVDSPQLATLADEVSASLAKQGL
# Assay: SPR (Biacore); 25°C
row,Binder,Kd
1,B1,0.155 nM
2,B2,0.0946 nM
